Biological target: Borrelia burgdorferi hybrid histidine kinase Hk1 periplasmic sensor domain D1 (Borrelia burgdorferi strain 5A4 NP1)
Experiment: SEC

“Borrelia burgdorferi hybrid histidine kinase Hk1 periplasmic sensor domain D1 (domain or fragment)” showed a stoichiometry N of 2.
